The supplement of paper PMC7877785
± gives the uncertainty stated by the source.

Test: self-splicing fitness, log relative to wild type (ln ratio); higher = more splicing; Tetrahymena group I intron in knt gene, E. coli kanamycin selection, DiMSum; sequences stand for … in CUCUCU…GGAGGGAAAAGUUAUCAGGCAUGCACCUGGUAGCUAGUCUUUAAACCAAUAGAUUGCAUCGGUUUAAAAGGCAAGACCGUCAAAUUGCGGGAAAGGGGUCAACAGCCGUUCAGUACCAAGUCUCAGGGGAAACUUUGAGAUGGCCUUGCAAAGGGUAUGGUAAUAAGCUGACGGACAUGGUCCUAACCACGCAGCCAAGUCCUAAGUCAACAGAUCUUCUGUUGAUAUGGAUGCAGUUCACAGACUAAAUGUCGGUCGGGGAAGAUGUAUUCUUCUCAUAAGAUAUAGUCGGACCUCUCCUUAAUGGGAGCUAGCGGAUGAAGUGAUGCAACACUGGAGCCGCUGGGAACUAAUUUGUAUGCGAAAGUAUAUUGAUUAGUUUUGGAGUACUCGUGGUCG
Summary of the method: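 A randomised library covering all eight P1ex-region intron nucleotides was built with the intron in the knt kanamycin-resistance gene on pET-22b(+) and held in E. coli BL21(DE3). Cells were grown overnight at 37°C or 30°C on LB agar, with or without 25 μg/mL kanamycin, plus 100 μg/mL carbenicillin, 50 μM IPTG and 0.2% rhamnose, and pooled colonies were amplicon-sequenced on an Illumina HiSeq 2500. DiMSum fitness is the error-weighted combination of wild-type-normalised replicate fold changes, kanamycin versus none.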

Sequence | self-splicing fitness (ln) (30 °C) | self-splicing fitness (ln) (37 °C)
CCUAAGCAAUAUUACGCACG | -3.1 ± 0.41 | -1.46 ± 0.23
CCUAAGCAAUAUUACGCAGG | -4.8 ± 0.29 | -2.37 ± 0.25
CCUAAGCAAUAUUACGCCAC | -2.75 ± 0.22 | –
CCUAAGCAAUAUUACGCGGG | -3.96 ± 0.21 | -2.68 ± 0.21
CCUAAGCAAUAUUACGCUGG | -4.1 ± 0.32 | -2.48 ± 0.25
CCUAAGCAAUAUUACGGAAG | -2.12 ± 0.11 | -0.751 ± 0.1
CCUAAGCAAUAUUACGGAGU | -3 ± 0.17 | -2.55 ± 0.17
CCUAAGCAAUAUUACGGGCG | -2.15 ± 0.11 | -0.76 ± 0.1
CCUAAGCAAUAUUACGGUAU | -3.72 ± 0.23 | -1.85 ± 0.24
CCUAAGCAAUAUUACGUAAA | -3.49 ± 0.24 | -2.43 ± 0.16
CCUAAGCAAUAUUACGUGGU | -4.74 ± 0.32 | -3.13 ± 0.25
CCUAAGCAAUAUUACGUUCU | -2.57 ± 0.16 | -3.16 ± 0.34
CCUAAGCAAUAUUACGUUUG | -4.59 ± 0.18 | -3.16 ± 0.16
CCUAAGCAAUAUUACGUUUU | -3.89 ± 0.18 | -1.3 ± 0.13
CCUCAGCAAUAUUACGAACA | -4.3 ± 0.42 | -1.46 ± 0.41
CCUCAGCAAUAUUACGAAUU | -2.53 ± 0.18 | -2.13 ± 0.2
CCUCAGCAAUAUUACGAGCG | -2 ± 0.094 | -1.05 ± 0.088
CCUCAGCAAUAUUACGCAAC | -2.21 ± 0.3 | -1.83 ± 0.4
CCUCAGCAAUAUUACGCAAU | -3.87 ± 0.2 | -2.01 ± 0.18
CCUCAGCAAUAUUACGCGAU | -4.95 ± 0.38 | -2.63 ± 0.22
CCUCAGCAAUAUUACGCUAU | -4.26 ± 0.43 | -2.22 ± 0.28
CCUCAGCAAUAUUACGGAGC | -4.55 ± 0.3 | -2.91 ± 0.19
CCUCAGCAAUAUUACGGCUG | -3.84 ± 0.21 | -2.36 ± 0.18
CCUCAGCAAUAUUACGUAGU | -2.16 ± 0.066 | -0.762 ± 0.075
CCUCAGCAAUAUUACGUCGG | -3.36 ± 0.16 | -2.59 ± 0.19

Sequence | self-splicing fitness (ln) (30 °C) | self-splicing fitness (ln) (37 °C)
CCUCAGCAAUAUUACGUGCC | -2.39 ± 0.17 | -2.39 ± 0.31
CCUCAGCAAUAUUACGUUGG | -3.17 ± 0.13 | -3.24 ± 0.21
CCUCAGCAAUAUUACGUUUG | -1.46 ± 0.093 | -2.15 ± 0.14
CCUGAGCAAUAUUACGAAAG | -2.39 ± 0.22 | -2.08 ± 0.23
CCUGAGCAAUAUUACGAAUG | -2.21 ± 0.18 | -1.7 ± 0.19
CCUGAGCAAUAUUACGAGAG | -3.7 ± 0.26 | -0.438 ± 0.1
CCUGAGCAAUAUUACGAGUU | -3.99 ± 0.39 | –
CCUGAGCAAUAUUACGAUUA | – | -2.35 ± 0.33
CCUGAGCAAUAUUACGCAUU | -4.02 ± 0.25 | -1.86 ± 0.23
CCUGAGCAAUAUUACGCGCA | -2.95 ± 0.34 | -1.11 ± 0.37
CCUGAGCAAUAUUACGCGCG | -3.05 ± 0.21 | -3.29 ± 0.26
CCUGAGCAAUAUUACGCGGA | -2.9 ± 0.25 | -1.17 ± 0.18
CCUGAGCAAUAUUACGCUGA | -2.59 ± 0.31 | -2.56 ± 0.35
CCUGAGCAAUAUUACGGAUA | -3.44 ± 0.32 | -1.92 ± 0.23
CCUGAGCAAUAUUACGGCUG | -4.49 ± 0.31 | -1.76 ± 0.2
CCUGAGCAAUAUUACGGCUU | -3.73 ± 0.29 | -3.02 ± 0.27
CCUGAGCAAUAUUACGGUAC | -4.34 ± 0.34 | –
CCUGAGCAAUAUUACGGUAU | -3.02 ± 0.16 | -2.61 ± 0.21
CCUGAGCAAUAUUACGGUCG | -3.95 ± 0.19 | -2.97 ± 0.19
CCUGAGCAAUAUUACGGUGA | -4 ± 0.3 | -2.64 ± 0.26
CCUGAGCAAUAUUACGGUUA | -2.13 ± 0.22 | -2.96 ± 0.22
CCUGAGCAAUAUUACGUCAU | -3.5 ± 0.15 | -2.68 ± 0.18
CCUGAGCAAUAUUACGUGAC | -3.82 ± 0.25 | -2.17 ± 0.22
CCUGAGCAAUAUUACGUGGU | -3.09 ± 0.16 | -2.94 ± 0.21
CCUGAGCAAUAUUACGUGUA | -3.53 ± 0.2 | -2.16 ± 0.2

Sequence | self-splicing fitness (ln) (30 °C) | self-splicing fitness (ln) (37 °C)
CCUGAGCAAUAUUACGUUGU | -3.57 ± 0.2 | -2.73 ± 0.23
CCUGAGCAAUAUUACGUUUG | -3.6 ± 0.22 | -2.21 ± 0.18
CCUGAGCAAUAUUACGUUUU | -3.74 ± 0.23 | -2.81 ± 0.25
CCUUAGCAAUAUUACGACUC | -3.05 ± 0.15 | -2.49 ± 0.2
CCUUAGCAAUAUUACGAGAA | -2.19 ± 0.38 | -2.79 ± 0.47
CCUUAGCAAUAUUACGAGCU | -4 ± 0.33 | -2.74 ± 0.29
CCUUAGCAAUAUUACGAUAA | -3.53 ± 0.25 | -2.88 ± 0.27
CCUUAGCAAUAUUACGAUCU | -4.14 ± 0.39 | -2.88 ± 0.2
CCUUAGCAAUAUUACGAUGU | -2.14 ± 0.13 | -1.49 ± 0.16
CCUUAGCAAUAUUACGAUUA | -2.28 ± 0.28 | -2.61 ± 0.32
CCUUAGCAAUAUUACGCAAG | – | -3.09 ± 0.33
CCUUAGCAAUAUUACGCAAU | -3.51 ± 0.23 | -1.47 ± 0.23
CCUUAGCAAUAUUACGCAUC | – | -2.77 ± 0.48
CCUUAGCAAUAUUACGCCAU | -2.87 ± 0.48 | -1.57 ± 0.29
CCUUAGCAAUAUUACGCCCU | -1.89 ± 0.48 | –
CCUUAGCAAUAUUACGCGAC | -3.16 ± 0.26 | -2.12 ± 0.28
CCUUAGCAAUAUUACGCGAU | – | -3.16 ± 0.22
CCUUAGCAAUAUUACGCGUG | -2.33 ± 0.12 | -2.61 ± 0.12
CCUUAGCAAUAUUACGCUUA | -3.61 ± 0.34 | -2.66 ± 0.33
CCUUAGCAAUAUUACGGACG | -1 ± 0.13 | -0.586 ± 0.17
CCUUAGCAAUAUUACGGCAA | -3.57 ± 0.33 | -2.54 ± 0.24
CCUUAGCAAUAUUACGGCGC | -2.98 ± 0.27 | –
CCUUAGCAAUAUUACGGGCC | -2.94 ± 0.31 | -2.54 ± 0.35
CCUUAGCAAUAUUACGGUCG | -0.919 ± 0.092 | -0.755 ± 0.097
CCUUAGCAAUAUUACGGUUA | -3.48 ± 0.24 | -2.24 ± 0.16

Sequence | self-splicing fitness (ln) (30 °C) | self-splicing fitness (ln) (37 °C)
CCUUAGCAAUAUUACGUACC | -3.04 ± 0.45 | –
CCUUAGCAAUAUUACGUCGC | -3.07 ± 0.4 | -2.66 ± 0.38
CCUUAGCAAUAUUACGUCGG | -3.99 ± 0.26 | -1.37 ± 0.15
CCUUAGCAAUAUUACGUGCA | -3.43 ± 0.23 | -3.76 ± 0.28
CCUUAGCAAUAUUACGUUAG | -4.07 ± 0.21 | -2.67 ± 0.26
CCUUAGCAAUAUUACGUUGU | -3.12 ± 0.17 | -3.27 ± 0.24
CCUUAGCAAUAUUACGUUUG | -3.99 ± 0.24 | -2.47 ± 0.18
CGAAAGCAAUAUUACGAACC | -0.666 ± 0.14 | -0.796 ± 0.16
CGAAAGCAAUAUUACGACUU | -1.64 ± 0.12 | -0.99 ± 0.14
CGAAAGCAAUAUUACGAGAG | -3.12 ± 0.17 | -2.58 ± 0.18
CGAAAGCAAUAUUACGAUCU | -0.599 ± 0.076 | 0.313 ± 0.11
CGAAAGCAAUAUUACGAUUC | – | -2.13 ± 0.26
CGAAAGCAAUAUUACGCAGG | -2.16 ± 0.091 | -1.4 ± 0.093
CGAAAGCAAUAUUACGCGGC | -2.81 ± 0.3 | -2.38 ± 0.31
CGAAAGCAAUAUUACGCGGG | -2.77 ± 0.18 | -1.88 ± 0.19
CGAAAGCAAUAUUACGCUCA | -0.156 ± 0.094 | 0.0149 ± 0.13
CGAAAGCAAUAUUACGGCGC | -1.14 ± 0.13 | -0.908 ± 0.15
CGAAAGCAAUAUUACGGGAU | -2.98 ± 0.21 | -2.87 ± 0.27
CGAAAGCAAUAUUACGGGGA | -3.09 ± 0.31 | -1.85 ± 0.2
CGAAAGCAAUAUUACGGUCG | -2.88 ± 0.15 | -2.19 ± 0.16
CGAAAGCAAUAUUACGGUGA | -1.52 ± 0.084 | -0.808 ± 0.11
CGAAAGCAAUAUUACGUAAC | – | -0.987 ± 0.5
CGAAAGCAAUAUUACGUAGC | -3.4 ± 0.29 | -2.39 ± 0.27
CGAAAGCAAUAUUACGUCAG | -1.1 ± 0.08 | 0.335 ± 0.11
